Test results taken from patent US20140031293A1.

Target: purified human fibrinogen (human) (UniProt P02671)
Assay: cell-based or functional assay

Chain of UniProt P02671 (P02671 20-629 limits assumed, chain 1 of 3): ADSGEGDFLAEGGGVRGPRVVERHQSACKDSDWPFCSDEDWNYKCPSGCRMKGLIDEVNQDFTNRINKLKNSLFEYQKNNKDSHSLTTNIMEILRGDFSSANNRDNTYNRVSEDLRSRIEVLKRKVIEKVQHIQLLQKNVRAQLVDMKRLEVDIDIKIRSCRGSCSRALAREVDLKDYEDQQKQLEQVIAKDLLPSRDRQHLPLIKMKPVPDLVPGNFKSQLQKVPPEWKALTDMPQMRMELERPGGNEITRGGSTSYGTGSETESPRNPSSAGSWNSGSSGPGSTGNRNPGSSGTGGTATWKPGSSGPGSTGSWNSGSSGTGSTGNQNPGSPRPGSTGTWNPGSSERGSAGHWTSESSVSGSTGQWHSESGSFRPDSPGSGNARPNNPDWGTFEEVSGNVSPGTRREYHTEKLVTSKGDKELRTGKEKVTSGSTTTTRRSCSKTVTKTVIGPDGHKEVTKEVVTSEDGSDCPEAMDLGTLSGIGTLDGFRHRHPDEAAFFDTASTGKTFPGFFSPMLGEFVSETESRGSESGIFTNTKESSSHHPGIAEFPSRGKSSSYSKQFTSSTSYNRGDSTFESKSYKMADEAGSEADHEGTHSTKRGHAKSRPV
Chain of UniProt P02671 (P02675 31-491 limits assumed, chain 2 of 3, further chain): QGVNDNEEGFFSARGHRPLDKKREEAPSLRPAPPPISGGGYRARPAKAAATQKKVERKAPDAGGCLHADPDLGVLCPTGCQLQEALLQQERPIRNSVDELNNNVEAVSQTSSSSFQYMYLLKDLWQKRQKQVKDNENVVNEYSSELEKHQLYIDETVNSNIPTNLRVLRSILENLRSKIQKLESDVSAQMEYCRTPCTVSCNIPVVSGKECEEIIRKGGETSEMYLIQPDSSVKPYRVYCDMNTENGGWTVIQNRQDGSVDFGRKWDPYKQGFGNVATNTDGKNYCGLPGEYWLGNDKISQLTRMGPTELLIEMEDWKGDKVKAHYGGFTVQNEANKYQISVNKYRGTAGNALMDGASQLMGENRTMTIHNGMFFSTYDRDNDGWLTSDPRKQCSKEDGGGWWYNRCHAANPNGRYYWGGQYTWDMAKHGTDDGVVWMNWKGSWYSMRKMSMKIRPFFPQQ
Chain of UniProt P02671 (P02679 other isoform, or with tags, fused parts or gaps limits assumed, chain 3 of 3, further chain): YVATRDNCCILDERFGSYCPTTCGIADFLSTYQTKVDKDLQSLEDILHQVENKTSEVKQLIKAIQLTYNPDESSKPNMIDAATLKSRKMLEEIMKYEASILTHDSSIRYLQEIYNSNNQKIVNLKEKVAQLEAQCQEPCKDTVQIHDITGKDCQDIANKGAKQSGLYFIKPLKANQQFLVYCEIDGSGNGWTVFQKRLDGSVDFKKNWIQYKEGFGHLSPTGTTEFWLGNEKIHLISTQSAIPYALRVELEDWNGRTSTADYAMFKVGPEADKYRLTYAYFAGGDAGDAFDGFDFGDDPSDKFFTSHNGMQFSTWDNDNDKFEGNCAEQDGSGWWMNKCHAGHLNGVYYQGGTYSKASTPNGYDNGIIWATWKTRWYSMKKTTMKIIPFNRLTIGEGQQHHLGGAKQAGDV

Clotting activity (clot formation, Sigma Amelung KC4 coagulometer; 30 uL sample at 0.5 mg/ml added to 100 uL fibrinogen at 3 mg/ml): < 6 s
Substance: PeproStat: fibrinogen-binding peptides of sequence GPRPG (GPRPG-PEG12-maleimide) conjugated to human serum albumin thiolated with 2-iminothiolane (from UniProt P02768 25-609)
